Data: paper PMC12290059
pKd: −log10 of the molar value.

Molecular target: recombinant SARS-CoV-2^RBD (biotinylated, AVI-tagged) (SARS-CoV-2) (UniProt P0DTC2)
Assay: BLI

With “N. vison ACE2 used in biolayer interferometry (domain or fragment)” the pKd was 8.82.
